Source: patent publication US20250154283A1 (published 2025)
Changes are numbered by the printed parent chain. Values belong to the binder of their own block, whether it stands above or below them.

How the values were obtained:
[1] = target: T1, His-StrepTagII-HRV3C-human VWF-CK-HA-tag (human); assay: solution-phase equilibrium binding, free antibody by ELISA; apparent Kd; pH 7.4; mean ± SD, n=2
T1 construct: it begins with the VWF signal peptide, whose limits were marked only by underlining that is lost in the text, so it was not cut off; The CK domain forms disulfide-linked homodimers (CK dimer); also called recombinant human CK domain; Human CK
T1 chain: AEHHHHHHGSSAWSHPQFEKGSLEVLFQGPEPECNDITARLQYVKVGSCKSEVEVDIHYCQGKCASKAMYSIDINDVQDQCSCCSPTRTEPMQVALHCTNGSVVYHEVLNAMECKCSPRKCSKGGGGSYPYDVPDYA
Description: (§1) Following incubation for 30 min at room temperature to establish equilibrium, unbound antibody was quantified by ELISA using the immobilized human CK domain for capture and HRP-conjugated goat anti-human IgG Fc antibody for detection.
(§2) Following a single wash of the plate with 200 μL of wash buffer (TBS containing 0.05% (v/v) Tween-20 and 5 mM CaCl₂), the plate was blocked by incubation with 200 μL blocking buffer (TBS containing 5 mM CaCl₂ and 1% (w/w) BSA) for 1 hour at room temperature. […] Incubation lasted 3 min and was followed by 5-min incubation with 100 μL HRP-conjugated goat anti-human IgG Fc antibody for detection (1 mg/mL stock diluted 1:20,000 in blocking buffer). Before and after addition of a detection antibody, the plate was washed 5 times with 200 μL wash buffer. A chromogenic horseradish peroxidase (HRP) substrate (100 μL) was then added and following color development for 3 min, 100 μL ELISA stop solution were added to quench the reaction. Absorbance was measured at 450 nm with subtraction of the absorbance at 620 nm.
(§3) The standard curve prepared with free antibody was fitted to a Sigmoidal four-parameter logistic (4PL) model.

[2] = target: T2, His-StrepTagII-HRV3C-cyno VWF-CK-HA-tag (cynomolgus monkey); assay: as above
T2 construct: it begins with the VWF signal peptide, whose limits were marked only by underlining that is lost in the text, so it was not cut off; The CK domain forms disulfide-linked homodimers; also called recombinant cyno CK domain; Cyno CK
T2 chain: T1 chain with N35S, A95P, E113Q, K115E
Description: as §1, §2, §3

[3] = target: T3, His-StrepTagII-HRV3C-cyno VWF-CK-HA-tag (cynomolgus monkey); assay: solution-phase equilibrium binding, unbound antibody by ELISA
T3 construct: also called recombinant cyno CK domain; cyno CK
T3 chain: T1 chain with N35S, A95P, E113Q, K115E

Kd [1]: 0.013 µM
Kd [2]: 0.0168 µM
B1: 399_Lib1 OA (antibody, human IgG4 S228P, kappa, F234A L235A)
heavy: QVQLVQSGAEVKKPGASVKVSCKVSGITFTSDYIHWVRQAPGKGLEWMGGMNPYSNKAIYAQKFQGRVTMTEDTSTDTAYMELSSLKSEDTAVYYCATGGLRIAARTSYFDYWGQGTLVTVSSASTKGPSVFPLAPCSRSTSESTAALGCLVKDYFPEPVTVSWNSGALTSGVHTFPAVLQSSGLYSLSSVVTVPSSSLGTKTYTCNVDHKPSNTKVDKRVESKYGPPCPPCPAPEAAGGPSVFLFPPKPKDTLMISRTPEVTCVVVDVSQEDPEVQFNWYVDGVEVHNAKTKPREEQFNSTYRVVSVLTVLHQDWLNGKEYKCKVSNKGLPSSIEKTISKAKGQPREPQVYTLPPSQEEMTKNQVSLSCAVKGFYPSDIAVEWESNGQPENNYKTTPPVLDSDGSFFLVSRLTVDKSRWQEGNVFSCSVMHEALHNHYTQKSLSLSLG
chain: ESKYGPPCPPCPAPEAAGGPSVFLFPPKPKDTLMISRTPEVTCVVVDVSQEDPEVQFNWYVDGVEVHNAKTKPREEQFNSTYRVVSVLTVLHQDWLNGKEYKCKVSNKGLPSSIEKTISKAKGQPREPQVYTLPPSQEEMTKNQVSLWCLVKGFYPSDIAVEWESNGQPENNYKTTPPVLDSDGSFFLYSRLTVDKSRWQEGNVFSCSVMHEALHNHYTQKSLSLSLG
light: DIQMTQSPSSVSASVGDRVTITCRASMDIAGSLAWYQQKPGKAPKLLIYDTSFRATGVPSRFSGSGSGTDFTLTISSLQPEDFANYYCQQYDNPPRLTFGGGTKVEIKRTVAAPSVFIFPPSDEQLKSGTASVVCLLNNFYPREAKVQWKVDNALQSGNSQESVTEQDSKDSTYSLSSTLTLSKADYEKHKVYACEVTHQGLSSPVTKSFNRGEC

fold change in Kd, cyno CK against human CK [3]: < 2 fold
B2: 399_Lib1 OA (antibody, human IgG4 S228P, kappa, F234A L235A)
heavy: B1 heavy
chain: B1 chain
light: B1 light
notes: monovalent one-arm human IgG4
